First the molecules themselves.
B1: H0L0 humanised antibody (wild type human IgG1) (antibody)
heavy: not shown
light: DIVMTQSPLSLPVTPGEPASISCRSSQSIVQSNGDTYLEWYLQKPGQSPQLLIYRVSNRFSGVPDRFSGSGSGTDFTLKISRVEAEDVGVYYCFQGSHVPYTFGQGTKLEIKRTVAAPSVFIFPPSDEQLKSGTASVVCLLNNFYPREAKVQWKVDNALQSGNSQESVTEQDSKDSTYSLSSTLTLSKADYEKHKVYACEVTHQGLSSPVTKSFNRGEC
B2: H0L0 IgG1m(AA) (antibody)
heavy: not shown
light: B1 light
B3: H1L0 IgG1m(AA) (antibody)
heavy: not shown
light: B1 light
notes: also called H10L0 IgG1m(AA) (as misprinted in several captions)
B4: H1L0 humanised antibody (wild type human IgG1) (antibody)
heavy: not shown
light: B1 light
B5: CD20-B (anti-CD20 IgG1, wild type constant region, FUT8 deleted CHO DG44) (antibody)
heavy: not shown
light: QIVLSQSPAILSASPGEKVTMTCRASSSVSYIHWFQQKPGSSPKPWIYATSNLASGVPVRFSGSGSGTSYSLTISRVEAEDAATYYCQQWTSNPPTFGGGTKLEIKRTVAAPSVFIFPPSDEQLKSGTASVVCLLNNFYPREAKVQWKVDNALQSGNSQESVTEQDSKDSTYSLSSTLTLSKADYEKHKVYACEVTHQGLSSPVTKSFNRGEC
modifications: The Fc N-glycan is expected to lack fucose (host: FUT8 deleted CHO DG44). The letters cannot carry this.
B6: CD20-A (anti-CD20 IgG1, wild type constant region, CHO-E1a) (antibody)
heavy: not shown
light: B5 light
B7: IGF1R-F (anti-IGF-1R H0L0 IgG1, wild type constant region, FUT8 deleted CHO DG44) (antibody)
heavy: not shown
light: B1 light
modifications: N-glycan fucose negative (all oligosaccharide species obtained from the sample are fucose negative)
notes: Same chains as IGF1R-E; differs by the host cell line; Campath leader left out
B8: IGF1R-H (anti-IGF-1R H0L0 IgG1 with S239D/I332E, FUT8 deleted CHO DG44) (antibody)
heavy: not shown
light: B1 light
modifications: N-glycan from FUT8 deleted CHO DG44 host (glycoengineered)
notes: Same chains as IGF1R-G; differs by the host cell line; Campath leader left out
B9: IGF1R-G (anti-IGF-1R H0L0 IgG1 with S239D/I332E, CHO-E1a) (antibody)
heavy: not shown
light: B1 light
notes: Campath leader left out
B10: 6E11 murine monoclonal antibody (antibody, V domains shown)
VH: EVQLQQSGPELVKPGASVRISCKASGYAFTDYYMNWVKQSHGKSLEWVANINPNNGGTNYNQKFKDKATLTVDKSSNTAYMELRSLTSEDTAVYYCARWILYYGRSKWYFDVWGTGTTVTVSS
VL: DVLMTQTPLSLPVSLGDHASISCRSSQSIVQSNGDTYLEWYLQKPGQSPKLLIYRISNRFSGVPDRFSGSGSGTDFTLKISRVEAEDLGVYYCFQGSHVPYTFGGGTKLEIKR
notes: Murine hybridoma antibody; Constant regions are murine IgG1/K or IgG2b/K; also called 6E11 parental; 6E11 mouse parental antibody
B11: 5G4 murine monoclonal antibody (antibody, V domains shown)
VH: EVQLQQSGPELVKPGASVKISCKASGYAFTDYYMNWVKQTHGRSLEWMANINPNTGGTNYNQKFRGKATLTVDKSSTTAYMELRSLTSEDSAVYYCARWILYYGSSRWYFDVWGTGTTVTVSS
VL: B10 VL with H18Q, S28T, Q31H, D35N, R55K, I56V, V90I
notes: Murine hybridoma antibody; murine constant regions not specified
B12: 15D9 murine monoclonal antibody (antibody, V domains shown)
VH: B11 VH with T40S, R43K, R65T, A97T, R107K
VL: B10 VL with H18Q, S28T, Q31H, D35N, I56V, N58Y, V83L, V90I
notes: as for B11

The results in this text go back to patent US20110262430A1 (published 2011).

Substitutions are numbered along the chain they refer to. In names and notes the source's numbering stands.

The term EC50 (read off the curve) denotes the concentration that produces a half-maximal response.

The target of the first assay is T1, Cynomolgus macaque monkey IGF-1R-Fc fusion protein (cynomolgus macaque monkey (Macaca …)).
T1 construct: The entry begins with the native signal peptide; also called recombinant Cynomolgus macaque IGF-1R; recombinant cynomolgus macaque IGF-1R
T1 sequence (chain, as listed by the source limits assumed): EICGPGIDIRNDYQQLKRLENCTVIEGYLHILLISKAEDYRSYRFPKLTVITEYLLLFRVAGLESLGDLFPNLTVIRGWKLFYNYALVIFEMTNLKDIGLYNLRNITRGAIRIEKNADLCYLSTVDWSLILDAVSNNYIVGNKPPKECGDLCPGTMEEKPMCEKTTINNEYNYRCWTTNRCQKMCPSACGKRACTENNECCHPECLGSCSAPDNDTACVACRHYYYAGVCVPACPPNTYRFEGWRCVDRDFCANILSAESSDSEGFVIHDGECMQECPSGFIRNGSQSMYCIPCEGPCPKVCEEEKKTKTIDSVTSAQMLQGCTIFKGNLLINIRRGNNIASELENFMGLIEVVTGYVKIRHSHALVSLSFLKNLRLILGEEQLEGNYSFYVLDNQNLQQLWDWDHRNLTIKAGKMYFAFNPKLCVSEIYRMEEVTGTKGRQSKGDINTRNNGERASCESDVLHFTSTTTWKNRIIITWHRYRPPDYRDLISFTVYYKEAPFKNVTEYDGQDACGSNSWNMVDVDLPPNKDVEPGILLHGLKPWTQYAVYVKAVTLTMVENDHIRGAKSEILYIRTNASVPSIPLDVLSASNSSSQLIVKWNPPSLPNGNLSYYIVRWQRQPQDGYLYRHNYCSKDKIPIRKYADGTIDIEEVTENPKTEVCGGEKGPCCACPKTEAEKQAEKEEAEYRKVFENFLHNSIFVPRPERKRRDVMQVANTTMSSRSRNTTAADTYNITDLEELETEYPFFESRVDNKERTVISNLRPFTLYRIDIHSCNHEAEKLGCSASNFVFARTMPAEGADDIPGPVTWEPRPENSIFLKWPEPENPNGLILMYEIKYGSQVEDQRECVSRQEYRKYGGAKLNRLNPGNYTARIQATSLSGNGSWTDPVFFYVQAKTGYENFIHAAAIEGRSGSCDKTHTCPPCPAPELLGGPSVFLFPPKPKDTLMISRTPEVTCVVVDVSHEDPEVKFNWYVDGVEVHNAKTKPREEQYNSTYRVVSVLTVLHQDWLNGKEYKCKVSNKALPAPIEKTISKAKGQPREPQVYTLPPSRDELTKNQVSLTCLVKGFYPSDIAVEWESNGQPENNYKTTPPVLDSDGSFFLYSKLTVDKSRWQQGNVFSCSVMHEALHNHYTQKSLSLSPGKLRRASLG
Put plainly: binding ELISA: plate coated with recombinant cynomolgus macaque IGF-1R-Fc, antibody titrated, anti-human kappa light chain-HRP detection, OD 490nm. As to the method:
(§1) 96 well ELISA plates were coated overnight with recombinant Cynomolgus macaque IGF-1R (see Example 4) at 1-2 μg/ml and blocked with 4% BSA/PBS. Purified anti-hIGF-1R antibodies were added and incubated for 1 hour at room temperature. The plates were washed in TBST and HRP conjugated anti mouse Ig (DAKO #P0260) was added to each well at 0.6-1.0 μg/ml. Plates were incubated for 1 hour at room temperature, washed with TBST and developed with OPD substrate (Sigma P9187) or TMB substrate (Sigma T8665). […] For antibodies containing a human IgG1/Cκ constant region, the HRP conjugated anti mouse Ig detection antibody was substituted with a goat anti-human Kappa Light Chains peroxidase conjugate (Sigma, A7164)
As for B1, the binding result is on record as “binds”.

B2: the binding result is recorded as “binds”.

Take B3: the binding result is given as “binds”.

Consider B4, for which the binding result is listed as “binds”.

Another assay deals with T2, His-tagged FcγRIIIa (F variant) extracellular domain (Heterogeneously glycosylated.).
T2 construct: also called FcγRIIIa (Phe); FcγRIIIa (Phe variant)
T2 sequence (chain, as listed by the source mutant limits assumed): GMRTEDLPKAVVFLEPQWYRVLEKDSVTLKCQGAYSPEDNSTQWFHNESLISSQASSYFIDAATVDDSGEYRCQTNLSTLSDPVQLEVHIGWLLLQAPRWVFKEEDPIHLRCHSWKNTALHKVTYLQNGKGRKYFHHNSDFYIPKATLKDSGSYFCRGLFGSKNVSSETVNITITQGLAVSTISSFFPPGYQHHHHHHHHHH
Put plainly: Biacore T100, His-tagged FcγRIIIa captured on anti-polyhistidine antibody, antibody injected 2-512 nM, 25°C, Bivalent model. How it is done:
(§2) Qiagen anti-polyhistidine antibody (Cat No. 34670) was immobilised on CM5 biosensor chip using standard NHS/EDC activation, the antibody was diluted to 50 ug/ml in acetate pH4.0 buffer and passed over the activated surface for 20 minutes at 5 ul/minute, the surface was then blocked with ethanolamine. Prior to use the chip was conditioned by performing several regeneration steps using 100 mM phosphoric acid.
(§3) For analysis of the interaction of the FcγRIIIa with various antibody constructs, the poly-histidine tagged receptors were captured to around 20 RU's. […] Regeneration was carried out using 100 mM phosphoric acid following each antibody/buffer injection. The run was carried out using HBS-EP buffer and carried out at 25° C. on a T100 Biacore machine. The data was analysed using the analysis software inherent to the machine using the 1:1 and Bivalent models.
(In general: SPR reads the build-up and loss of mass on a sensor chip optically.)
For B5, the Kd was 75.6 nM.

B6 came in with a Kd of 78.2 nM.

The molecule B7 displayed a Kd of 131 nM.

Take B8: the Kd was 51.7 nM.

B9: the Kd came to 88.9 nM.

In a further assay the target is T3, His-tagged FcγRIIIa (V variant) extracellular domain (Heterogeneously glycosylated.).
T3 construct: also called FcγRIIIa (Val); FcγRIIIa (Val variant)
T3 sequence (chain, as listed by the source mutant limits assumed): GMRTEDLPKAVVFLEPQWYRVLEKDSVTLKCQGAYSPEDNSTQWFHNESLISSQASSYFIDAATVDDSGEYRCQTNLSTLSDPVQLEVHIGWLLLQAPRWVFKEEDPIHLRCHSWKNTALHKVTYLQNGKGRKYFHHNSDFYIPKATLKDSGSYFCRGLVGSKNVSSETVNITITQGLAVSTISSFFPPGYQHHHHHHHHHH
Described as above. How it is done: as §2, §3
In turn, B5 showed a Kd of 74.1 nM.

With B6, the Kd was 274 nM.

B7 came in with a Kd of 146 nM.

B8 displayed a Kd of 2.7 nM.

Molecule B9 returned a Kd of 68.8 nM.

The target of another assay is T2, His-tagged FcγRIIIa (F variant) …. Put plainly: Biacore T100, His-tagged FcγRIIIa captured on anti-polyhistidine antibody, antibody injected 2-512 nM, 25°C, 1:1 model. How it is done:
as §2, §3
Take B5: the Kd is 20.7 nM.

On to B7, for which the Kd was found to be 59.6 nM.

As for B8, the Kd is 1.11 nM.

With B9, the Kd is 14.9 nM.

The next assay deals with T3, His-tagged FcγRIIIa (V variant) …. Described as above. How it is done: as §2, §3
Consider B5, for which the Kd is 5.9 nM.

Take B6: the Kd turned out to be 39.5 nM.

For the molecule B7, the Kd stood at 12.1 nM.

B8 displayed a Kd of 0.832 nM.

Molecule B9 gave a Kd of 7.27 nM.

A further assay addresses T1, Cynomolgus macaque monkey IGF-1R-Fc …. Put plainly: binding ELISA: plate coated with recombinant cynomolgus macaque IGF-1R-Fc, antibody titrated, anti-mouse Ig-HRP detection, OD 450nm. How it is done:
as §1
(In general: ELISA stands for enzyme-linked immunosorbent assay.)
Turning to B10, the “EC50 (read off the curve)” value was about 0.04 µg/mL.

Take B11: the “EC50 (read off the curve)” value was about 0.1 µg/mL.

Turning to B12, the binding result is listed as “binds”.
